This is an account of results in the nanobody polyreactivity screen of Harvey et al. (2022).

This data set is described as follows: yeast display, Sf9 membrane polyspecificity reagent, FACS + sequencing; frameworks hold sequencing errors. Summed up: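 Synthetic nanobody libraries on Saccharomyces cerevisiae BJ5465 were galactose-induced for 36–48 hours, stained 1 hour at 4 °C with 10% biotinylated, detergent-solubilized Sf9 membrane reagent and enriched on streptavidin microbeads. FACS then separated cells into low and high (top ~1%) gates by anti-HA (expression) and streptavidin (reagent binding) fluorescence. Genes were colony-PCR amplified, MiSeq 2 × 250 sequenced and CDR-length filtered. A clone's polyreactivity label is that of its gate of origin.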
On to “QVQLVESGGGLVQAGGSLLLICAASGSTFPYNAMGWYRQAPGKQRELVASITSRGGSTYYADSVKGRFTISRDNAKNTVYLQMNSLKPQDTAVYYCATPGDTYGWTRRRYYYWGQGTQVTVSS”, for which the “polyreactivity (PSR sort gate)” value is on record as “high polyreactivity”.

For “QVQLVESGGGLVQAGGSLRLSCAASGYIFYYYTMGWYRQATGKEREFVAAISYSVGSTYADSVKGRFTISRDNAKNTVYLQMNSLKPEDTAVYYCNAVTIRNVYYSGGYWGQGTQVTVSS”, the “polyreactivity (PSR sort gate)” value was “high polyreactivity”. For “QVQLVESGGGLVQAGGSLRLSCAASGSTFPYYTMGWYRQAPGKERELVAAIRYSGSSTYYADSVKGRFTISLDNAKNSVYLQMNSLKPEDTAVYSCAKTLWRRRGDRRYRVIEMDHWGQGTQVTVSS” the value was “low polyreactivity”.

As for “QVQLVESGGGLVQAGGSLRLSCAASGRILKWYAMGWYRQAPGKERELVAAISARGGSTFYADSVKGRFTISRDNAKNTVYLQMNSLKPEDTAVYYCNTYYRGGPYDVAYDYWGQGTEVTVSS”, the “polyreactivity (PSR sort gate)” value is “high polyreactivity”. The result for “QVQLVESGGGLVQAGGSLRLSCAASGFTFGFNAMGWYRQAPGKEREFVASITYRGGSTYYADSVKGRFTISRDNAKNTVYLQMNSLKPEDTAVYYCAAASPWRRYISDYWGQGTQVTVSS” reads “high polyreactivity”; that for “QVQLVESGGGLVQAGASLRLSCAASGSIFDPYAMGWYRQAPGKERQLVAAITYSVGGTTYYADSVKGRFTISRDNAKNTVYLQMNSLKPEDTAVYYCAAEWWGTPFDYWGQGTQVTVSS”, “high polyreactivity”.

Turning to “QVQLVESGGGLVQAGGSLRLSCAASGRTFGSNAMGWYRQAPGKERELVAAITRRGGSTYYADSVKGRFTISRDNAMNTVYLQMNSLKPEDTAVYYCATDPVSTRGSDYWGQGTQVTVSS”, the “polyreactivity (PSR sort gate)” value was “low polyreactivity”. For “QVQLVESGGGLVQAGGSLRLSCAASGFIFRSYAMGWYRQAPGKERELVAANSSSGGRTYYADSVKGRFTISRDNAKNTVYLQMNSLKPEDTAVYYCATSLYTDNSWDNYWGQGTQVTVSS” the value was “high polyreactivity”; for “PVQLVESWGGLDQAGGSLRLICAPSGSIFSVYAMGWYRQAPGKERELVAAISWSGGSTYYADSVKGRFTISRDNAKNTVYLQLNSLKPEDTAVYYCNAKHLPRHRDYWGQGTQVTVSS”, “low polyreactivity”.

Take “QVQLVESGGGLVQAGGSLRLSCAASGSILSGYAMGWYRQAPGTERELVAAINDGGGTNYADSVKGRFTISRDNAKNTVYLQMKSLKPEDTAVYYCAAEQSVSFLVFTGVKFDYWGQGTQVTVSS”: the “polyreactivity (PSR sort gate)” value is recorded as “low polyreactivity”. Consider “QVQLVESGGGLVQAGGSLRISCAASGSTFRGYAMGGYRQAPGKERDLVAAMSSNGDRTFYADSVKGRFTISRDNAMNTVYLLMNSLKAEDTAVYYCNAVYSGSWQLYGYWGQGSQVTVSS”, for which the “polyreactivity (PSR sort gate)” value is “high polyreactivity”. The result for “QVQLVESGGGLVQAGGSLRLSCAASGSTFVRYAMGWYRQAPGKERELVAAISKRGGSTYYADSVKGRFTISRDNAKNTVYLQMNSLKPEDTAVYYCAAVPLSSRQYDYWGQGTQVTVSS” reads “high polyreactivity”; that for “QVQLVESAGGLVQAGGSLRLSFAASGRISGRYAMRWYRQAPGKEREVVAAITSRGGRTYYADSVKGRFTISRDNAKNTVYLQMNSLKPEDTAVYYCAKDAGSRTVREFGYWGQGTHVTVSS”, “high polyreactivity”. For “QVQLVESGGGLVQAGGSLRLSCAASGLIFSDNAMGWYRQAPGKEREFVASISDSGTTTYYADSVKGRFTISRDNAKNTVYLQMNSLKPEDTAVYDCNARPGQSGARFGYWGQGTQVTVSS” the value was “high polyreactivity”; for “QVQLVESGGGLVQARGSLRLSCAASGIIFLVNDMGWYRQAPGKVRELVAAITYSGDGTFYADSVKGRFTISRDNAKNTVYLQMNSLKPEDTAVYYCAADLPESPESYYHTDDYWGQGTQGTVSS”, “low polyreactivity”; for “QVQLVESGGGLVQAGGSLRLSCAASGIISSVYAMGWYRQAPGKERELVAAISGSGGSTYYADSVKGRFTISRDNAKNTVYLQMNSQKPEDTAVYYCSKGYQYQGNSYGYWGQGTQVTVSS”, “low polyreactivity”.

As for “QVQLVESGGGLVQAGGSLRLSCAASGSTFDKYAMGWYRQAPGKDRELVAAITWGGGSTYYADSVKGRFTISRDNAKNTVYLQMNSLKPEDTAVYYCAAEQGSSVLYDSWGQGTQVTVSS”, the “polyreactivity (PSR sort gate)” value was “low polyreactivity”. Take “QVQIVESGGGLVQAGGSLRLSCAASGFTCRGNAMGWYRQAPGKERELVATISYNAGSTYYADAVKGRFTISRDNAKNTVYFQMNSLNPEDTAVYYCAVELDSEPDYEPWTEYDYWGQGTQVTVSS”: the “polyreactivity (PSR sort gate)” value was “low polyreactivity”. For “QVQLVESGGGLVQAGGSLRLSCAASGSTFEYNAMGWYRQAPGKERELVASSTNYADSVKGRFTISRDNAKNTVYLQMNSLKPDDTEVYYCARDRYYTREWYWYRHDHWGQGTQVTVSS”, the “polyreactivity (PSR sort gate)” value is on record as “low polyreactivity”. For “QVQLVESGGGLVQAGGSLRLSCAASGSTFTAYGMGWYRQAPGKERELVAAITWRGGRTYYADSVKGRFTISRDNAKNTVYLQMNSLKPEDTAVYYCAKGAVWRYTTKYGYDYWGQGTQVTVSS” the value was “high polyreactivity”. Consider “QVQLVESGGGLVQAGGSLRLSCAASGNIFYVYAMGWYRQAPGKERELVAVISRNDGSTYYADSVKGRFTISRDNAKNTVYLQMNSLKPEDTAVYYCNAEWYFWGQGTQVTVSS”, for which the “polyreactivity (PSR sort gate)” value is given as “low polyreactivity”. For “QVQLVESGGGLVQAGGSLRLSCAASGITFRGYAMGWYRQAPGKERELVAAITWSGGSTYYADSVKGRFTISRDIAKNTVYLQMKSLKPEDTAVYYCAARGRRSFEYWGQGTHVTVSS” the value was “high polyreactivity”; for “QVQLVESGGGLVQAGGSLRLSCAASGRTFWDYAMGWYIQAPGKEREFVAAINTSGGRTYYADSVKGRFTISRDNAKNTVYLQMNSLKPEDTAVYYCAARTRDRAYDSWGQGTQVTVSS”, “high polyreactivity”. For “QVQLVESGGGLVQAGGSLRLSCAASGSTFVWYAMVWYRQAPGKEREFVATISWSDGSTYYADSVKGRFTISRDNAKNTVYLLMNSLKPEVTAVYYCASDVDRFFSYKYDYWGQGTQVTVSS” the value was “low polyreactivity”; for “QVQLVESGRGLVQAGGSHRLSCAASGSTITYYTMGWYREAPGKERELVAAISGSGGRTYYADSVKGRFTISRDNAKNTVYLQMNSLKPEDTAVYYCAAVYQLSRYDYWGQGTQVTVSS”, “high polyreactivity”. For “QVQLVESGGGLVQAGGSLRLSCAASASIFPDNTMGWYRQAPGKERELVAAIDGRGGTTYYADSVKGRFTISRDNAKNTVYLQMNSLKPEDTAVYYCARDIGHSARYDYWGQGTQVTVSS”, the “polyreactivity (PSR sort gate)” value is listed as “low polyreactivity”. The result for “QVQLVESGGGLVQAGGSLRLSCAASGIIFRYYARVWYRQAPGKEREFVAAINYSGGSTYYADSVKGRFTISRDTAKYSVYLQMNSLKPEDTAVYYCAARSYTYTAPIYGYWGQGTQVTVSS” reads “high polyreactivity”; that for “QVQLVESGGGLVQAGGSLRLSCAASGSIFYVYAMGWYRQAPGKERELVASINKYGGSTYYADSVKGRFTISRDNAKNTVYLQMNSLKPADTAVYYCAARTGWPRVGFQYPAHVGFDYWGQGTQVTVSS”, “low polyreactivity”.

As to “QVQLVESGGGLVQAGGILRISCAASGRNLSRNAMGWYRQAPGKERELVAAISRSGSRTYYADSVKGRFTISRDNAKNSVYLLMNSLKPEDTAVYYCNAESYLSGWWYDYWGQGTQVTVSS”, the “polyreactivity (PSR sort gate)” value is reported as “high polyreactivity”.

Take “QVQLVETGGGLVQAGGILLLSCAASRIIFPWYTMGWYRQAPGKERELVAAINYSSGDTYADSVKGRFTISRDNAKNTVYLQMNSLKPEDTAVYYCDAEDPEYATYWYKYGYWGLGTQVTVSS”: the “polyreactivity (PSR sort gate)” value is given as “low polyreactivity”.
